Test results from article PMC12861479, “SlERF.D2-mediated antagonism between ethylene and ABA signaling pathways modulates osmotic stress adaptation in tomato”.

Experiments:
Assay in all cases: EMSA; not stated; EMSA performed as in a previous study (ref 68)
MBP-SlEIL3 = biological target: T1, MBP-SlEIL3 (Solanum lycopersicum (tomato), UniProt Q94FV2 1-601); conditions: protein: recombinant; tags: MBP (pMAL-c5G); chain copies: 2; label: 5' biotin; blunt
T1 sequence: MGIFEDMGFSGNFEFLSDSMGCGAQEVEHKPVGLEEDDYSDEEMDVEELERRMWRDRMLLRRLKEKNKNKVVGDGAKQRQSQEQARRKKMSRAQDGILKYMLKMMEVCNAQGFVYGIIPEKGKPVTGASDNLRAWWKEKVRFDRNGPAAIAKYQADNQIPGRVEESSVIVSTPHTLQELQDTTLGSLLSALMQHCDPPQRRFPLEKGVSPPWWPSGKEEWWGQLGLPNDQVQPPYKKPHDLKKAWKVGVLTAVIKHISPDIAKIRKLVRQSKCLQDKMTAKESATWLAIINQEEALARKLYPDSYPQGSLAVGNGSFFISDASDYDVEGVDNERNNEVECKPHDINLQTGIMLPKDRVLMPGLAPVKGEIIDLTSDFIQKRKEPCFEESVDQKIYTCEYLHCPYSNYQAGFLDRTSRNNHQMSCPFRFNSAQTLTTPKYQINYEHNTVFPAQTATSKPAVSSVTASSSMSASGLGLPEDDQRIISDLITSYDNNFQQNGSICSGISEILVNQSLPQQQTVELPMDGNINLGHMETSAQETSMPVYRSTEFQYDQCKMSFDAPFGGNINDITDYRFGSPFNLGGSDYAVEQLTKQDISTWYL

MBP-SlEIL1 = biological target: T2, MBP-SlEIL1 (Solanum lycopersicum (tomato), UniProt Q94FV4 1-610); conditions: protein: recombinant; tags: MBP (pMAL-c5G); chain copies: 2; label: 5' biotin; blunt
T2 sequence: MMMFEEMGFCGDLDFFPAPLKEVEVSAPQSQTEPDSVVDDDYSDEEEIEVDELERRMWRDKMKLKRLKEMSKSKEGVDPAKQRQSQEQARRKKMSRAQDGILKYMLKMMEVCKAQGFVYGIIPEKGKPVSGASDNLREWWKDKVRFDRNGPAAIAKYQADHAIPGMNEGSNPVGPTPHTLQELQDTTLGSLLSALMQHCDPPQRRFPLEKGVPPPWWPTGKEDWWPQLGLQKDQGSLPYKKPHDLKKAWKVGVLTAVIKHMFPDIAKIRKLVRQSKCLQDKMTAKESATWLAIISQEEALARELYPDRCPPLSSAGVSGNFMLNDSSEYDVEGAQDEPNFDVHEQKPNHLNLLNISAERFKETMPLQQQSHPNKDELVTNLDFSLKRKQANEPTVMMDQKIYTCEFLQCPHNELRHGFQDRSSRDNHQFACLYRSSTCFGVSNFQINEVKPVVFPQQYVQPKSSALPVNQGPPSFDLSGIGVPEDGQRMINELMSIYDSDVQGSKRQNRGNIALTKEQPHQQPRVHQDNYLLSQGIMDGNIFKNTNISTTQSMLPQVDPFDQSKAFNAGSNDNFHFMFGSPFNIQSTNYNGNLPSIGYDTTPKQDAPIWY

MBP-SlEIL2 = biological target: T3, MBP-SlEIL2 (Solanum lycopersicum (tomato), UniProt Q94FV3 1-614); conditions: protein: recombinant; tags: MBP (pMAL-c5G); chain copies: 2; label: 5' biotin; blunt
T3 sequence: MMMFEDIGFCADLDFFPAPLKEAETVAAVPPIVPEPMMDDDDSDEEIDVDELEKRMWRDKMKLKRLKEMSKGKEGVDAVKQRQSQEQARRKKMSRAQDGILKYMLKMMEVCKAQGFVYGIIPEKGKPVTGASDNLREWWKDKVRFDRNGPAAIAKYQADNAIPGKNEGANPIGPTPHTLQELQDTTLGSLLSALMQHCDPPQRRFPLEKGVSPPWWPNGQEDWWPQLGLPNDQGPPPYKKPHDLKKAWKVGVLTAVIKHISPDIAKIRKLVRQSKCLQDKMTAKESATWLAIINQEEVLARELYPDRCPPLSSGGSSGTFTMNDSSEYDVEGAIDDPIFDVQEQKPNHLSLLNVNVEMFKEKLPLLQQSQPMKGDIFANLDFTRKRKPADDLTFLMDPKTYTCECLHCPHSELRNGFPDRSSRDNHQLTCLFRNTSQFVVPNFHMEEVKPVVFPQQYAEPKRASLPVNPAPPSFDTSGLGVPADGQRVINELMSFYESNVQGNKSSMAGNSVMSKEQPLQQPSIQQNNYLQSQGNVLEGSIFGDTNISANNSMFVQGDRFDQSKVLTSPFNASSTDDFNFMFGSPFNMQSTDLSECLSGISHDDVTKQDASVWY

MBP-SlEIL4 = MBP-SlEIL4 (Solanum lycopersicum (tomato), UniProt A0A3Q7GZH0 1-605); conditions: protein: recombinant; tags: MBP (pMAL-c5G); label: 5' biotin; blunt

Measured: binding result

B1: SlERF.D2 promoter EBS probe WT (dsDNA)
DNA 1: GTTATAACAGACATACATGCGCTAATATCG
DNA 2: CGATATTAGCGCATGTATGTCTGTTATAAC
binds: MBP-SlEIL3 | MBP-SlEIL1 | MBP-SlEIL2 | MBP-SlEIL4
